Measured values: patent US20250296995A1 (GlaxoSmithKline, published 2025)
Numbering of substitutions follows the chain as printed. “And” between values parts separate entries of the source, which are not always exact repeats. Identical values can stand only once.

B1: AB-000338 LS (antibody, V domains shown)
VH: QVQLVESGGGVVQPGRSLRLSCAASGFSFSTYGMHWIRQVPGKGLEWVAIIWHDGSKEFYADSVKGRFTISRDNSKKKLYLQMNSLRAEDTAIYYCVKDDFDSSGHSYFHYWGQGTLVTVSS
VL: GVVMTQSPLSLPVTLGQPASISCRSSQSLVHSDGNTYVHWFQQRPGQSPRRLIYKVSNRDSGVPDRFSGSGSGTDFTLKISRVEAEDVGVYYCMQGTQWWTFGQGTKVEIK
B2: AB001458 (antibody, V domains shown)
VH: EVQLVESGGGLVQPGRSLRLSCTASGFTFGDYAMSWFRQAPGKGLEWVSFIRSKTYGGSTEYAASVKGRFTISRDDSKSIAYLQMHSLKTEDTAFYYCTRVSAAAGVGDYWGQGTLVTVSS
VL: EIVMTQSPATLSVSPGERATLSCRASQSVGSNLAWYQQKPGQAPRLLIYGASTRATGLPARFSGSGSATEFTLTISSLQSEDFAVYYCQQYNTWWTFGQGTKVEIK
B3: AB001455 (antibody, V domains shown)
VH: QVQLVESGGGVVQPGRSLRLSCAASGFTFSNYGMHWVRQAPGKGLEWVAIIWYDGSSKYYADSVRGRFTISRDNSKNTLFLQMNSLRAEDTAVYYCARDDYYSSAYNHLGYWGQGTLVTVSS
VL: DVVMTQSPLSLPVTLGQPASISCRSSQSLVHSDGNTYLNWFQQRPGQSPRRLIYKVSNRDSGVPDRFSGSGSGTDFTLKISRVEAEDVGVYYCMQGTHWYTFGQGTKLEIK
B4: AB-000327 (antibody, V domains shown)
VH: QVQLVESGGGVVQPGRSLRLSCAASRFTFKNYGMHWVRQGPGKGLEWVAVIWYDGSQEYYVDSVRGRFTISRDNSKDTLYLQMNSLRAEDTAVYYCVRDGRYRTSHQTSTGFFDLWGQGTLVTVSS
VL: QSMLTQPPSVSGAPGQRVTISCTGSSSNIGADYDVHWYQQLPGTAPKLLIYGNNNRPSGVPDRFSGSKSGTSASLAITGLQPEDEAEYYCQSYDSSLSGSFVFGTGTKVTVL
B5: AB-000373 (antibody, V domains shown)
VH: QVLLVESGGGVVQPGGSLRLSCTASGFTFKNYGMHWVRQAPGKGLEWVAVIWFDGSNEFYADSVEGRFTISRDNSKNTLYLQTNSLRAEDTAVYYCARSYTSSWLGFDFWGQGTLVTVSS
VL: DAVMTQTPLSLSVTPGQPASISCKSGQSLLHSDGKTYLYWYLQKPGQSPQLLIYEVSSRFSGVPDRFSGSGSGTDFTLKISRVEAEDVGVYYCMRGIHPRTFGQGTKVEIK
B6: AB001533 (antibody, V domains shown)
VH: QVQLVESGGGVVQPGRSLRLSCAASGFTFNSYGMHWVRQAPGKGLEWVALISFDGTNKFYADSVKGRFTISRDNSKNTLYLQMNSLRAEDTALYHCATDSLFYYDFHLFDYWGQGTLVTVSS
VL: DIVLTQTPLSSPVTLGQPASISCRSSQSLVYSDGNTYLNWLQQRPGQPPRLLIYKISNRFSGVPDRFSGSGAGTDFTLKISRVEAEDVGVYYCMQATQLYTFGQGTKLEIK
B7: AB-000394 (antibody, V domains shown)
VH: QAQPVESGGGVVQPGKSLRLSCAASGFTFRNFGMHWVRQAPGKGLEWVAVIWHDGSNQFYADSVEGRFTISRDNSKNTLYLQMDSLRVEDTAMYYCARDRGYSGSWGYFDHWGQGTLVTVSS
VL: EIVLTQSPATLSLSPGERATLSCRASQSISDYLAWYQQKPGQAPRLLIYDASFRATGIPARFSGSGSGTDFTLTISSLEPEDFAVYYCQQRSIGFTFGPGTKVDIK
B8: AB001428 (antibody, V domains shown)
VH: QVQLVESGGGVVQPGRSLRLSCVVSGFTFSSYGMHWVRQAPGKGLEWVAIIWYDGSKKYYADSVKGRFTISRDNSKNTLYLQMNSLRAEDTAVYYCARPGDSSGSHGEAFDIWGQGTMVTVSS
VL: DIQMTQSPSTLSASVGDRVTITCRPSQSISNWLAWYQQKPGKAPKLLIYKASSLESGVPSRFSGSGSGTEFTLTISGLQPDDFATYYCQQYNTYWTFGQGTKVEIK
B9: AB001472 (antibody, V domains shown)
VH: QVQLVESGGGVVQPGRSLRLSCAASGFTFSSYGMHWVRQAPGKGLEWVAVIWYDGSNKYYADSVKGRFTISRDNSQNTLFLQMNSLRAEDTAVYYCARVGEYSSSPDWGAAFDIWGQGTMVTVSS
VL: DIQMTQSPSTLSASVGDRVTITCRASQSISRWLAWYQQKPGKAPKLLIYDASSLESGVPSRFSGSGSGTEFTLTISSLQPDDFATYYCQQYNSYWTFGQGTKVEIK
B10: AB-000356 LS (antibody, V domains shown)
VH: QVQLVESGGGVVQPGRSLRLSCAASGFTFRNFGMHWVRQTPGKGLEWVAVIWHDGSNKFYADSVEGRFTISRDNSKNMIYLQMNSLRVEDTAIYYCARDSLFYDHDNSGYYGYWGQGTLVTVSS
VL: QIVMTQSPATVSVSPGERATLSCRASRSVTSKLAWYQQKPGQAPRLLIYGASTRATGIPARFSGSGSGTEFTLTISSLQSEDFAVYFCQQYNNGFTFGPGTKVDFK
B11: AB001511 (antibody, V domains shown)
VH: QVQLVESGGGVVQPGRSLRLSCAASGFTFSSYGMHWVRQAPGKGLEWVAIIWYDGSNKYYADSVKGRFTISRDNSKNTLYLQMNSLRAEDTAVYYCARDTDDYYDAHTMDVWGQGTTVTVSS
VL: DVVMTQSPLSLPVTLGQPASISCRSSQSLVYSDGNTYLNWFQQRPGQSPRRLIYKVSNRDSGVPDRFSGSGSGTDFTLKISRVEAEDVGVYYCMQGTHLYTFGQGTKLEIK
B12: AB-001545 (antibody, V domains shown)
VH: QVQLVESGGGVVQPGRSLRLSCAASGFTFSSYGMHWVRQAPGKGLEWVAVIWYDGSNKYYADSVKGRFTISRDNSKNTLYLQMNSLRAEDTAVYYCARDLDYSNHNWFDPWGQGTLVTVSS
VL: B7 VL with I29V, D31S, F53N, I93N, G94W, P99Q, K102R, V103L, D104E
B13: AB-000222 (antibody, V domains shown)
VH: QVQLVESGGGVVQPGRSLRLSCAASGFTFSNFGMHWVRQAPGKGLEWVAVIWYDGSKKYYADFVKGRFTISRDNSKYMLYLQMTSLGAEDTAIYYCARDIRGAYRVTDGGFDYWGQGALVTVSS
VL: QFVLTQPPSVSGAPGQRVTISCTGSSFNIGAGYDVHWYQQLPEKAPKLLIYGSTNRASEVPDRFSGSKSGTSASLAITGLQPEDEADYYCQSYDSSLSGYVFGTGTKVTVL
B14: AB001387 (antibody, V domains shown)
VH: QVQLVESGGGVVQPGRSLRLSCAASGFTFSNYGMHWVRQAPGKGLEWVAVIWYDGSNKFYADSVKGRFTSSRDNSKNTLYLQMNSLRAEDTAVYYCARDGRFLTTVTTAYFDYWGQGTLVTVSS
VL: QSVLTQPPSVSGAPGQRVTISCTGSSSNIGAGYDVHWYQQLPGTAPKLLIYGNSNRPSGVPDRFSGSKSGTSASLAITGLQAEDEADYYCQSYDSSLSALVFGGGTKLTVL
B15: AB001480 (antibody, V domains shown)
VH: QVQLVESGGGVVQPGRSLRLSCAASGFTFSFYGMHWVRQAPGKGLEWVAVIWYDGSNKYYADSVRGRFTISRDNSKNTLYLQMNSLRAEDTAVYYCARVGNDYDDHGSALDMWGQGTMVTVSS
VL: B8 VL with P25A, N31S, K50R, S60P, G77S, A84G, T85I, T93S, Y94R
B16: AB-000231 (antibody, V domains shown)
VH: QVHLVESGGGVVQPGRSLRLSCAASGFTFRNYGIHWVRQAPGKGLEWVAVIWYDGSREFYADSVEGRFTVSRDNSKNTVFLQMNSLRVDDTAVYYCARAGYSDTSGYGDHWGQGTLVSVSS
VL: QSVLTQPPSVSGAPGQRVTISCTGGSSNIGAGYDVHWYQQLPGTAPKLLISHNNNRPSGVPDRFSGSKSGTSASLVIAGLQAEDEADYYCQSYDRRLSSSWVFGGGTRLTVLS
B17: 338-LS (antibody, V domains shown)
VH: B1 VH
VL: B1 VL
B18: 338-ALE-LS (antibody, human IgG1, kappa, V domains shown)
VH: B1 VH
VL: GVVMTQSPLSLPVTLGQPASISCRSSQSLVHSDGNTYVHWFQQRPGQSPRRLIYKVSNRDSGVPDRFSGSGSGTDFTLKISRVEAEDVGVYYCMQGTQWWTFGQGTKVEIKR

Each binder was assayed against T1, recombinant Plasmodium falciparum circumsporozoite protein (CSP) (Plasmodium falciparum, UniProt Q7K740 21-375) (assay: SPR, recombinant CSP).
T1 construct: also called recombinant CSP
T1 sequence (Q7K740 21-375 limits assumed): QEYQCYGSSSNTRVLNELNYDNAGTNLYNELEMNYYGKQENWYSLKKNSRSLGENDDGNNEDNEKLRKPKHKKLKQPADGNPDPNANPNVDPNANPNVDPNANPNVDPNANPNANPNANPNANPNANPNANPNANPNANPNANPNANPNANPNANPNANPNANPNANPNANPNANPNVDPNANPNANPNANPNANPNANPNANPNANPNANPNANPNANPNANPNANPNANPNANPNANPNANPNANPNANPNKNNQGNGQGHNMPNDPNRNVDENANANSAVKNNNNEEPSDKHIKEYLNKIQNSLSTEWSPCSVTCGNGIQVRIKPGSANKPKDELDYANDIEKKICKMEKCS

Question: Which Kd does the source give for B1 here?
Answer: 0.13 nM

Question: What about the koff of the same binder?
Answer: 0.00147 s⁻¹

Question: What about the kon of the same binder?
Answer: 1.13e+07 M⁻¹ s⁻¹

Question: Which Kd does the source give for B2 here?
Answer: 0.921 nM

Question: What about the koff of the same binder?
Answer: 0.00171 s⁻¹

Question: And the kon?
Answer: 1.86e+06 M⁻¹ s⁻¹

Question: For B3, which Kd is on record?
Answer: 1.37 nM

Question: And the koff?
Answer: 0.000831 s⁻¹

Question: And the kon?
Answer: 608000 M⁻¹ s⁻¹

Question: B4 was tested. Which Kd did it give?
Answer: 0.467 nM

Question: What about the koff of the same binder?
Answer: 0.00143 s⁻¹

Question: What about the kon of the same binder?
Answer: 3.06e+06 M⁻¹ s⁻¹

Question: For B5, which Kd is on record?
Answer: 0.0592 nM

Question: And the koff?
Answer: 0.00152 s⁻¹

Question: What about the kon of the same binder?
Answer: 2.58e+07 M⁻¹ s⁻¹

Question: For B6, which Kd is on record?
Answer: 0.248 nM

Question: And the koff?
Answer: 0.000669 s⁻¹

Question: What about the kon of the same binder?
Answer: 2.69e+06 M⁻¹ s⁻¹

Question: For B7, which Kd is on record?
Answer: 0.105 nM

Question: And the koff?
Answer: 0.00156 s⁻¹

Question: And the kon?
Answer: 1.48e+07 M⁻¹ s⁻¹

Question: Which Kd does the source give for B8 here?
Answer: 1.18 nM

Question: And the koff?
Answer: 0.00101 s⁻¹

Question: And the kon?
Answer: 855000 M⁻¹ s⁻¹

Question: What does the source list for B9?
Answer: Kd: 2.11 nM; koff: 0.000518 s⁻¹; kon: 246000 M⁻¹ s⁻¹

Question: For B10, which Kd is on record?
Answer: 2.46 nM

Question: What about the koff of the same binder?
Answer: 0.00107 s⁻¹

Question: What about the kon of the same binder?
Answer: 436000 M⁻¹ s⁻¹

Question: For B11, which Kd is on record?
Answer: 2.03 nM

Question: What about the koff of the same binder?
Answer: 0.000525 s⁻¹

Question: And the kon?
Answer: 259000 M⁻¹ s⁻¹

Question: B12 was tested. Which Kd did it give?
Answer: 4.96 nM

Question: And the koff?
Answer: 0.000442 s⁻¹

Question: What about the kon of the same binder?
Answer: 89000 M⁻¹ s⁻¹

Question: With B13 as the binder, how does the Kd read?
Answer: 0.153 nM and 0.152 nM

Question: And the koff?
Answer: 0.00118 s⁻¹

Question: And the kon?
Answer: 7.76e+06 M⁻¹ s⁻¹

Question: With B14 as the binder, how does the Kd read?
Answer: 0.676 nM

Question: What about the koff of the same binder?
Answer: 0.00111 s⁻¹

Question: What about the kon of the same binder?
Answer: 1.65e+06 M⁻¹ s⁻¹

Question: Which results are given for B15?
Answer: Kd: 1.17 nM and 1.18 nM; koff: 0.000659 s⁻¹; kon: 561000 M⁻¹ s⁻¹

Question: With B16 as the binder, how does the Kd read?
Answer: 0.328 nM

Question: And the koff?
Answer: 0.00142 s⁻¹

Question: And the kon?
Answer: 4.34e+06 M⁻¹ s⁻¹

These binders were tested against T2, recombinant SPOCK1 protein (human, UniProt Q08629 22-439) (assay: SPR with recombinant protein).
T2 sequence (looked up): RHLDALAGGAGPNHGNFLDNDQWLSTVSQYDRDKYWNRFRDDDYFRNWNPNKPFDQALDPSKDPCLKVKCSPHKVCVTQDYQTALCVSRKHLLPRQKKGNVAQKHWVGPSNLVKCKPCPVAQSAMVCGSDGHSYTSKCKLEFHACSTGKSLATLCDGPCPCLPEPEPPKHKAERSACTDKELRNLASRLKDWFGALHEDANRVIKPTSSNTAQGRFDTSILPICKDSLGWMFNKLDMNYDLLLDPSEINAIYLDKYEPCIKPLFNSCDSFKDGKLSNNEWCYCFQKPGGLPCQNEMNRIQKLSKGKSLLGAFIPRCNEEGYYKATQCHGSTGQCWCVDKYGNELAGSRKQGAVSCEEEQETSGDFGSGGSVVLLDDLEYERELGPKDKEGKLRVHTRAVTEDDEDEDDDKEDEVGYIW

Question: Does B17 bind?
Answer: no binding (tested: 300 nM)

Question: Does B18 bind?
Answer: no binding (tested: 300 nM)

The binders below were run against T1, recombinant Plasmodium falciparum … (assay: binding affinity column of the in vivo table (SPR, CSP)).

Question: Which Kd does the source give for B1 here?
Answer: 0.13 nM

Question: Which Kd does the source give for B2 here?
Answer: 0.921 nM

Question: With B3 as the binder, how does the Kd read?
Answer: 1.37 nM

Question: With B4 as the binder, how does the Kd read?
Answer: 0.467 nM

Question: Which Kd does the source give for B5 here?
Answer: 0.0592 nM

Question: Which Kd does the source give for B6 here?
Answer: 0.248 nM

Question: For B7, which Kd is on record?
Answer: 0.105 nM

Question: B8 was tested. Which Kd did it give?
Answer: 1.18 nM

Question: With B9 as the binder, how does the Kd read?
Answer: 2.11 nM

Question: With B10 as the binder, how does the Kd read?
Answer: 2.46 nM

Question: How did the Kd turn out when B13 was run?
Answer: 0.152 nM

Question: Which Kd does the source give for B14 here?
Answer: 0.676 nM

Question: How did the Kd turn out when B15 was run?
Answer: 1.18 nM
